Test results taken from patent publication US8344120B2, “Nucleic acid molecules encoding rage fusion proteins” (TransTech Pharma, Inc., priority 2006, dated 2013).
Values joined by “and” are separate entries in the source; they are usually repeats but may differ in a detail not shown here. Equal entries are not always repeated.

Legend:
[1] = Pharmacokinetic profile of TTP-4000 after IV injection; assay type: in vivo, monkeys; conditions: single IV bolus 5 mg/kg; once TTP-4000 has saturated its ligands; plasma ELISA
Procedure: Following collection, the tubes were placed on wet ice (maximum 30 minutes) until centrifugation under refrigeration (at 2 to 8° C.) at 1500×g for 15 minutes. Each harvested plasma sample was then stored frozen (−70° C.±10° C.) until assayed for RAGE polypeptide using an ELISA at various time-points following the injection, as described in Example 6.
In FIG. 12 each curve represents a different animal under the same experimental conditions.
Initially, 50 uL of the RAGE specific monoclonal antibody 1HB1011 at a concentration of 10 ug/mL in 1× PBS pH 7.3 is coated on plates via overnight incubation. When ready for use, plates are washed three times with 300 uL of 1× Imidazole-Tween wash buffer and blocked with 1% BSA. […] The samples are allowed to incubate at room temperature for one hour. After incubation, the plates are plates are washed three times. A Goat Anti-human IgG1 1 (Sigma A3312) AP conjugate in 1×PBS with 1% BSA is added and allowed to incubate at room temperature for 1 hour. The plates are washed three times. Color was elucidated with paranitrophenylphosphate.

[2] = system: recurrent diabetes in syngeneic NOD transplant model; test: Syngeneic islet transplantation in NOD mice; assay type: in vivo
Description: Spontaneous autoimmune non-obese diabetic mice (NOD/LtJ) (12-25 weeks old) served as recipients for islet cells, while young pre-diabetic NOD/LtJ mice (6-7 weeks old) served as donors in syngeneic islet transplantation. Islets for transplantation were isolated as described above in Section A (Allogeneic Islet Transplantation). Diabetic NOD/LtJ mice received islet grafts within 2 days of the diagnosis of diabetes. 500-600 freshly isolated islets (approximately 550 islet equivalents) from donor mice were picked up with an infusion set and transplanted into the subcapular space of the right kidney. Test compounds were administered as soon as the islets were transplanted and continued for approximately 8 weeks. […] Islet graft function was monitored by serial blood glucose measurements daily for the first 2 weeks after islet transplantation, followed by every other day thereafter. Reversal of diabetes was defined as blood glucose less than 200 mg/dl on two consecutive measurements. Percentage graft loss was determined when blood glucose exceeded 250 mg/dl on two consecutive measurements.

[3] = system: HMGB1-induced TNF-α production in THP-1 cells; test: HMGB1-induced TNF-α production in THP-1 cells; assay type: cell-based; design: dose or concentration left out as unconfirmed; conditions: 24 hours
Procedure: (§1) HMGB1 has been reported to be a ligand for RAGE and the Toll-Like Receptors 2 and 4 (Park et al., J Biol Chem., 2004; 279(9):7370-7). All three of these receptors (RAGE, Toll-like receptor 2, and Toll-like receptor 4) are expressed on THP-1 cells (Parker, et al., J Immunol., 2004,172(8):4977-86.).
In this experiment, THP-1 cells were stimulated to produce TNF-α by HMGB1 ([…]) in the presence or absence of either TTP4000 or anti-RAGE antibodies. Under the conditions used in the assay, HMGB1 should be the only inducer of TNF-α.
as §1, with “HMGB 1” for “HMGB1”, “J.” for “J”
In this experiment, THP-1 cells were stimulated to produce TNF-α by HMGB1 ([…]) in the presence or absence of either TTP4000 or anti-RAGE antibodies. Under the conditions used in the assay, HMGB1 should be the only inducer of TNF-α. The amount of TNF-αsecreted by the THP-1 cells was measured 24 hours after the addition of the proteins to the cell culture using a commercially available ELISA kit for TNF-α (R&D Systems, Minneapolis, Minn.).

[4] = 300 ug LD + 100 ug qod ip, syngeneic islets in NOD mice

B1: TTP-4000: four domain RAGE fusion protein: human RAGE N-terminal sequence (to position 251) linked to human IgG Fc (γ1) without hinge; SEQ ID NO: 34/56 (protein)
chain: QNITARIGEPLVLKCKGAPKKPPQRLEWKLNTGRTEAWKVLSPQGGGPWDSVARVLPNGSLFLPAVGIQDEGIFRCQAMNRNGKETKSNYRVRVYQIPGKPEIVDSASELTAGVPNKVGTCVSEGSYPAGTLSWHLDGKPLVPNEKGVSVKEQTRRHPETGLFTLQSELMVTPARGGDPRPTFSCSFSPGLPRHRALRTAPIQPRVWEPVPLEEVQLVVEPEGGAVAPPSVFLFPPKPKDTLMISRTPEVTCVVVDVSHEDPEVKFNWYVDGVEVHNAKTKPREEQYNSTYRVVSVLTVLHQDWLNGKEYKCKVSNKALPAPIEKTISKAKGQPREPQVYTLPPSRDELTKNQVSLTCLVKGFYPSDIAVEWESNGQPENNYKTTPPVLDSDGSFFLYSKLTVDKSRWQQGNVFSCSVMHEALHNHYTQKSLSLSPGK
- terminal half-life [1]: greater than 300 hours
- day of graft loss for each animal [2, 4]: 40 day and 43 day and 36 day and 45 day and 44 day and 38 day (2×) and 35 day
- day of graft loss, Mean [2, 4]: 39.875 days
- time before detection of graft failure, in words ([2]; versus animals not treated at all): increase in the time before detection of graft failure
- inhibition of HMGB1-induced TNF-α production [3]: to a greater extent than does the anti-RAGE antibody
